The record followed here is the supplement of paper PMC9170038.

Series [1] has as its system MS2 coat protein. The series can be described thus: apparent KD of MS2 coat protein, switch OFF state (with FMN for OFF switches, without FMN for ON switches); designed switch direction (-1 OFF switch, 1 ON switch): 1; higher = weaker reporter binding. Particulars: FMN input: 0 or 200 uM; Eterna round: R93 (includes R88 designs). The gist of the method: (§1)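 Normalised binding curves from single clusters were fitted, and the median fit for each design is given as apparent KD. The clusters held designed RNA switches transcribed on-chip from Illumina sequencing clusters. These were titrated with SNAP-549-labelled MS2 coat protein (twofold steps from 0.7 or 1.5 nM to 3 µM, 0.8–1.5 h to 10–20 min per step) in 100 mM Tris-HCl pH 7.5, 80 mM KCl, 4 mM MgCl2, without or with constant ligand.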

In series [2] the test system is MS2 coat protein. Kind of series: apparent KD of MS2 coat protein, switch ON state; designed switch direction (-1 OFF switch, 1 ON switch): 1; higher = weaker reporter binding. As to conditions: FMN input: 0 or 200 uM; Eterna round: R93 (includes R88 designs). Summed up: as §1

For “GGAAAUAACAGAGAGGAUAUCCAAAGGAAAACAUGAGGAUCACCCAUGUAAAAGGAAGGAAAUUGGGAGAAGGCUCAAAAUAAUC [salish99-ss2-017]”, the “apparent KD of MS2 coat protein” value in the series on MS2 coat protein [1] came out at 24.3 nM; in the series with MS2 coat protein [2], 23.9 nM.
For “GAAGACAUAGUUCAGGAUAUAGGAAUAGUCACAUGAGGAUCACCCAUGUGCAUUUAUAUGCGCGCUUAGAAGGGAGGUAGUUAUA [SameState2 Malc#21]”, in that order: 23.9 nM and 24.2 nM.
With “AUAAAACAUGAGGAUCACCCAUGUAGAAAUAUGGGAGGAUAUACUAGAUCGAAAGAUCUAGUAGAAGGCCUUAAAG [JL Mod of Eli 3]”, the “apparent KD of MS2 coat protein” value with MS2 coat protein [1] came out at 52.6 nM; with MS2 coat protein [2], 31.7 nM.
For “AAGAAACAUGAGGAUCACCCAUGUAAGAUAAACACAGGAUAUGCGAAAAGAACAAAAGAAGCAGAAGGGUGAAGAA [Mat - Same State 1 - Tesla mod - D145]”, in that order: 42.4 nM and 25.4 nM.
Take “GAAAAACAUGAGGAUCACCCAUGUGGAAAUAUGGGAGGAUAUACAAAGACGUAAGUCAAAGUAGAAGGCCUAAAAG [Garnet 94]”: the “apparent KD of MS2 coat protein” value in the series with MS2 coat protein [1] was found to be 177 nM; in the series with MS2 coat protein [2], 30.8 nM.
Regarding “AUAUAUAUAAGGUAGGAUAUCCAAAAGUAAACAUGAGGAUCACCCAUGUAAAAAAUCUAAAAAUGGGAGAAGGACCAUAUAUAUA”, the “apparent KD of MS2 coat protein” value in the series with MS2 coat protein [1] came to 37.1 nM; in the series on MS2 coat protein [2], 19 nM.
The like results for “GAAAAACAUGAGGAUCACCCAUGUAGAAAUAUGGGAGGAUAUACAAAGACGAAAGUCAAAGUAGAAGGCCCAAAAG [Starry Same State 1.1 (mat747 round 1 mod)]” were, in that order, 38.8 nM and 24.1 nM.
For “AAGAAACAUGAGGAUCACCCAUGUAAAAUAAACACAGGAUAUGCGAAAAGAAACAAAGAAGCAGAAGGGUGAAGAA [Mat - Same State 1 - Tesla mod - 56]”, in that order: 36.2 nM and 16.9 nM.
For “AGCCGCACUAUACAGGAUAUCACAAUAUCGACAUGAGGAUCACCCAUGUGACUGGCACCAGUCGGUGAGAAGGGUGAAGUGCGGC [Raarati]”, in that order: 421 nM and 90.6 nM.
As for “AGGAAACAUGAGGAUCACCCAUGUAGAAAUAUGGGAGGAUAUCGGAAUAAAAUAAAGAAACGAGAAGGCCUAAAAG [59%, Flamingo, 3]”, the “apparent KD of MS2 coat protein” value with MS2 coat protein [1] was 324 nM; in the series with MS2 coat protein [2] it was 38.8 nM.
For “AUAUAUAUAAGGUAGGAUAUCCAAAAGUCCACAUGAGGAUCACCCAUGUAAAGAAAGAAAAAAUGGGAGAAGGACCAUAUAUAUA [77%, More Tesla, 5]”, in that order: 42.1 nM and 18.7 nM.
The like results for “GUAGAACAUGAGGAUCACCCAUGUGAAGACGCAUGAGGAUAUAUCCGUACAUAGCAUACGAUAGAAGGCAUGAUAA [JR_SS001_Sub1704]” were, in that order, 90.6 nM and 29.6 nM.
Regarding “AAGAAACAUGAGGAUCACCCAUGUAAGAUAAACACAGGAUAUGCGAAAGAAAUAAAUAAAGCAGAAGGGUGAAGAA [Mat - Same State 1 - Tesla mod - D148]”, the “apparent KD of MS2 coat protein” value stood at 44.5 nM in the series with MS2 coat protein [1] and 22.4 nM in the series with MS2 coat protein [2].
Turning to “GGGAGACAUGAGGAUCACCCAUGUGAGAAGAGGCGAGGAUAUCGAAAGAAAGAAGAGAAACGAGAAGGCGCGAGUU [salish99-SS1-054]”, the “apparent KD of MS2 coat protein” value was determined as 54.7 nM in the series with MS2 coat protein [1] and 35 nM in the series on MS2 coat protein [2].
Turning to “AGGAGACAUGAGGAUCACCCAUGUGAGAAGAGGCGAGGAUAUCGAAAGAAAGAAGAGAAACGAGAAGGCGCGAGUU [salish99-SS1-022]”, the “apparent KD of MS2 coat protein” value amounted to 33.8 nM with MS2 coat protein [1] and 25.5 nM with MS2 coat protein [2].
In the case of “AUAACACAUGAGGAUCACCCAUGUAGAAAUAAGGGAGGAUAUACAAAGACGAAAGUCAAAGUAGAAGGCUCAAAAG [76%, Meechl 4]”, the entries for the “apparent KD of MS2 coat protein” value in the series on MS2 coat protein [1] and in the series on MS2 coat protein [2] were 18.6 nM and 14.8 nM, respectively.
Consider “GGAGCCGGCACUGAGGAUAUUCAUAUUAAAACAUGAGGAUCACCCAUGUAGGCCAGAAGGCCUUGGGAGAAGGCAGGUCGACUCG [Diqureveri]”, for which the “apparent KD of MS2 coat protein” value with MS2 coat protein [1] turned out to be 288 nM; with MS2 coat protein [2] it was 20.8 nM.
Consider “GAUAGACAUGAGGAUCACCCAUGUAGAAUUAUGGGAGGAUAUACAAAGACGAGAGUCAGAGUAGAAGGCCUAGGAG [salish99-ss1-158]”, for which the “apparent KD of MS2 coat protein” value came out at 69.2 nM in the series on MS2 coat protein [1] and 28.1 nM in the series with MS2 coat protein [2].
The like results for “CAUCAUGCGCCUAAGGAUAUGUCUCACAAGACAUGAGGAUCACCCAUGUAGACAAAAUAAGCGAUGCAGAAGGUGGAGCGCAUGC [Rasoer]” were, in that order, 348 nM and 83.1 nM.
On to “GAAAAACAUGAGGAUCACCCAUGUAAAAAUAUGGGAGGAUAUUGAAACACGAAAGUCAAACAAGAAGGCCUAAAAG [Garnet 3]”, for which the figures for the “apparent KD of MS2 coat protein” value with MS2 coat protein [1] and in the series with MS2 coat protein [2] were 147 nM and 44.1 nM, respectively.
Turning to “AUAUAUAUAAGACAGGAUAUCCGAAAGUAAACAUGAGGAUCACCCAUGUAAAGAAAGAAACUCAUGGAGAAGGGUCAAUAUAUAU [Mat - Same State 2 - Tesla mod - D84]”, the “apparent KD of MS2 coat protein” value in the series with MS2 coat protein [1] turned out to be 65.6 nM; in the series on MS2 coat protein [2], 22.4 nM.
“AAAUAAAGGACUGAGGAUAUACCACAUGAAACAUGAGGAUCACCCAUGUUGAAAAACAAAGGGUGGUAGAAGGUAGUCCACAAAC [Same State 2.5a ( so lets mod hyphema)]”: the “apparent KD of MS2 coat protein” value was found to be 29.3 nM in the series with MS2 coat protein [1] and 17.2 nM in the series on MS2 coat protein [2].
The like results for “AGAAGACAUGAGGAUCACCCAUGUGGGAAUAUGGGAGGAUAUACAAAGACGAGAGUCAGAGUAGAAGGCCUAGGAA [salish99-SS1-091(!)]” were, in that order, 132 nM and 33 nM.
On to “CGCAAACAUGAGGAUCACCCAUGUCAAUGUGGUCAAGGAUAUGGGUUCCUAAAUGGAACACCAGAAGGUGAAAAGA [Anesatve]”, for which the “apparent KD of MS2 coat protein” value with MS2 coat protein [1] turned out to be 54.5 nM; with MS2 coat protein [2], 20 nM.
In the case of “AUAAAAACGUAUGAGGAUAUCCAAAAUAAAACAUGAGGAUCACCCAUGUGAAUAAAAUAACAAUGGGAGAAGGCAUACGUAUCAU [SS 2 M 53]”, the “apparent KD of MS2 coat protein” value with MS2 coat protein [1] was found to be 28.8 nM; with MS2 coat protein [2], 12.5 nM.
For “AAAAAAAAAGUAGAGGAUAUCCGAGUGGUAACAUGAGGAUCACCCAUGUGAAGAAAGGAAGAUGAGGAGAAGGCUACAAAAAAAAA [Mat - Mod of Nando]”, in that order: 42.2 nM and 21.2 nM.
For the sequence “GAAGACAUAGUUCAGGAUAUGGGAAUAGUCACAUGAGGAUCACCCAUGUGCAUUUAUAUGCGCGCUCAGAAGGGAGGUAGAUAAU [Mat - Same state - Malcolm Mod - D118]”, the “apparent KD of MS2 coat protein” value amounted to 27 nM in the series with MS2 coat protein [1] and 26.9 nM with MS2 coat protein [2].
Consider “AUAGGGACGUCGGAGGAUAUUCGAUGUAAAACAUGAGGAUCACCCAUGUGAAUAAAAUAAACAUGGAAGAAGGCCGACGUGCCAU [SS 2 M 54]”, for which the “apparent KD of MS2 coat protein” value in the series with MS2 coat protein [1] came out at 13.3 nM; in the series with MS2 coat protein [2], 10.3 nM.
For “GAAAAACAUGAGGAUCACCCAUGUAGAAAUAUGGGAGGAUAUACAAAGUGGAAAGACAAAGUAGAAGGCCUAAAAG [Garnet 25]”, the “apparent KD of MS2 coat protein” value came to 309 nM in the series with MS2 coat protein [1] and 35.6 nM in the series on MS2 coat protein [2].
With “AUAAAAUAAAAUGAGGAUAUCUAUAAUAAAACAUGAGGAUCACCCAUGUUUAAACAAAGAUCAUGGGAGAAGGCAUAAAAUAAAU [SS2 M 40]”, the entries for the “apparent KD of MS2 coat protein” value in the series on MS2 coat protein [1] and in the series with MS2 coat protein [2] were 14 nM and 15.9 nM, respectively.
For the sequence “AAAAGACAUGAGGAUCACCCAUGUAAAAACAUAGGAGGAUAUGUCGUGAAAAAAGACUUGGCAGAAGGCCUUUGUC [SS1 - 45]”, the results for the “apparent KD of MS2 coat protein” value in the series on MS2 coat protein [1] and with MS2 coat protein [2] were 76.4 nM and 48.1 nM, respectively.
For “AAAAAAAAAAGCUAGGAUAUCCAAAAAAAAACAUGAGGAUCACCCAUGUAAAAAAAAAAAAAAUGGGAGAAGGAGCAAAAAAAAAA [Mod of Eli]”, in that order: 39.6 nM and 28.5 nM.
For “AACAAUCUAUCUGAGGAUAUAUGUCAAAAGACAUGAGGAUCACCCAUGUAAAAACAUGAAAAAUAAUAGAAGGCAGAUAGAUUGA [SS2: 1140]”, in that order: 52.4 nM and 59.9 nM.
With “CCGAUGGUAUACUAGGAUAUGGGCGCCCUUACAUGAGGAUCACCCAUGUUAUCACAAAGCCGCGGCCAGAAGGAGUUCAUGGGAG [Tieronsove]”, the “apparent KD of MS2 coat protein” value in the series on MS2 coat protein [1] was 122 nM; in the series on MS2 coat protein [2] it was 94.7 nM.
In the case of “CGAAAGGAGAGAGAGGAUAUCCAAAGGAAAACAUGAGGAUCACCCAUGUAGAAGGUAGGAGAUUGGGAGAAGGCUCAAGAGAUAU [salish99-ss2-153]”, the “apparent KD of MS2 coat protein” value with MS2 coat protein [1] was found to be 44.2 nM; with MS2 coat protein [2] it was 20 nM.
For “AACGUGACGACAUAGGAUAUGUACACACGUACAUGAGGAUCACCCAUGUGACUAGUAAUCGUGUGGCAGAAGGGUGAAGUCUCGA [Anzasousra]”, in that order: 31.4 nM and 21.4 nM.
In the case of “AAAAAACAUGAGGAUCACCCAUGUAGAAACAUGGGAGGAUAUACAAAGACGAAAGUCAAAGUAGAAGGCCUAAGAA [Mat - Same State 1 - Mod - D166]”, the “apparent KD of MS2 coat protein” value in the series with MS2 coat protein [1] was 58.2 nM; in the series on MS2 coat protein [2], 81.8 nM.
In the case of “GAAAAACAUGAGGAUCACCCAUGUGGAAAUAUGGGAGGAUAUACAAAGACGAAAGUCAAAGUAGAAGGCCUAAAAG [Mat - Same State 1 - Eli mod - D4]”, the results for the “apparent KD of MS2 coat protein” value in the series on MS2 coat protein [1] and in the series on MS2 coat protein [2] were 111 nM and 18.2 nM, respectively.
